Values of other authors in publication PMC3074115.

Tests used:
[1] = biological target: Ferrochelatase (Homo sapiens) (UniProt P22830); test: ITC
IscU (Escherichia coli) = IscU (Escherichia coli) (UniProt P0ACD4); test: ITC and SPR
Sequence of IscU (Escherichia coli) (P0ACD4 whole entry): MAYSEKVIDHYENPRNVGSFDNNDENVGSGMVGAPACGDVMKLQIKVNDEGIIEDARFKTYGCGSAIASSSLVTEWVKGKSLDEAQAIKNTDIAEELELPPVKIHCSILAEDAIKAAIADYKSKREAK

Sequence of Ferrochelatase (Homo sapiens) (P22830 55-423): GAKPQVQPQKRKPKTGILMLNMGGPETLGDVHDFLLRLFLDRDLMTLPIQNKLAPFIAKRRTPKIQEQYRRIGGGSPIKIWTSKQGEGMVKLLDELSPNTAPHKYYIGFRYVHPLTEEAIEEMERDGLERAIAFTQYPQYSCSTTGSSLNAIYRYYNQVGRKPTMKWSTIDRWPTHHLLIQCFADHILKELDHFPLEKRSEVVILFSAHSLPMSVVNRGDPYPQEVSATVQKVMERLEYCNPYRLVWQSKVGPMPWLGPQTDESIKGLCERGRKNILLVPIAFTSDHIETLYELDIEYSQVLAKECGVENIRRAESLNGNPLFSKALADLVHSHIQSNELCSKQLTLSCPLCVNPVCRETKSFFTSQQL
Sequence of IscS (P0A6B7 whole entry): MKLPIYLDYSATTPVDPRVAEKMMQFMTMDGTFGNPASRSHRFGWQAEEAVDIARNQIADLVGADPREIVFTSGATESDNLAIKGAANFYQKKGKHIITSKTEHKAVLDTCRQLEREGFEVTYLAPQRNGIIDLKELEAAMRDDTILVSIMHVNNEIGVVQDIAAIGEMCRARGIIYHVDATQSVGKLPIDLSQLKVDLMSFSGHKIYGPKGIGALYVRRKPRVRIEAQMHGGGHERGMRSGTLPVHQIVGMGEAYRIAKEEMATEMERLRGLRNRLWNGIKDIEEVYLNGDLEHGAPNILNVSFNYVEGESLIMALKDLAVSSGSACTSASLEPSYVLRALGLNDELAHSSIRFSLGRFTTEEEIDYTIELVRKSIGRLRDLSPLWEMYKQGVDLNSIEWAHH

Kd [1] [nM] | Substance | Kd (IscU (Escherichia coli)) [nM]
17 | Frataxin (from UniProt Q16595) | –
– | IscS (from UniProt P0A6B7) | 2000
